Data on 8 molecules can be found in patent publication US20260070974A1 (NONA BIOSCIENCES SUZHOU, published 2026).

The labels stand for the following.
B1: PR301286-1 (antibody, human IgG1, kappa, V domains shown)
VH: QVQLVESGGGVVQPGKSLRLSCAASGFTFSSYGMHWVRQAPGKGLEWVAVIWIDASNRYYAASVKGRFTISRDNSKNTLYLQMNSLRAEDTAVYYCTRGYGDYAYVMDVWGQGASVTVSS
VL: DIVMTQSPLSLPVTPGEPASISCRSSQSLLPGNGYNYLDWYLQKPGQSPQLLIYLGSNRASGVPDRFSGSGSGTDFTLKISRVEAEDVGIYYCMQALQSPLTFGGGTKVEIKR
notes: PTM variant of PR301286: VH(HCDR2) G/A; human IgG1/kappa
B2: PR301286-3 (antibody, human IgG1, kappa, V domains shown)
VH: B1 VH with A55V
VL: B1 VL
notes: PTM variant of PR301286: VH(HCDR2) G/V; human IgG1/kappa
B3: PR301286-7 (antibody, human IgG1, kappa, V domains shown)
VH: B1 VH
VL: B1 VL with G34T
notes: PTM variant of PR301286: VH(HCDR2) G/A; VL(LCDR1) G/T; human IgG1/kappa
B4: PR301286-5 (antibody, human IgG1, kappa, V domains shown)
VH: B1 VH
VL: B1 VL with N33S
notes: PTM variant of PR301286: VH(HCDR2) G/A; VL(LCDR1) N/S; human IgG1/kappa
B5: PR301286-6 (antibody, human IgG1, kappa, V domains shown)
VH: B1 VH
VL: B1 VL with G34A
notes: PTM variant of PR301286: VH(HCDR2) G/A; VL(LCDR1) G/A; human IgG1/kappa
B6: PR301289-1 (antibody, human IgG1, kappa, V domains shown)
VH: QVQLVQSGAEVKKPGASVKVSCRASGYTFTSYDINWVRQATGQGLEWMGWMNPHSGDTGYAQNFQGRVTMTWQTSISTAYMELSSLRSEDTAVYYCARRRVGVYYYGMDVWGQGTTVTVSS
VL: ENVLTQSPGTLSLSPGERATLSCRASQSVSSSYFGWYQQKPGQAPRLLIYGASSRATGIPDRFSGSGSGTDFTLTISRLEPEDFAVYYCQQYGSSPITFGQGTRLEIKR
notes: PTM variant of PR301289: HFR3 N/Q; human IgG1/kappa
B7: PR301289-2 (antibody, human IgG1, kappa, V domains shown)
VH: B6 VH with Y106H
VL: B6 VL
notes: PTM variant of PR301289: HFR3 N/Q; CDRH3 YYY/YYH; human IgG1/kappa
B8: PR300679 (antibody, human IgG1, kappa, V domains shown)
VH: QVQLQESGPGLVKPSGTLSLTCAVSGGSISSSNWWSWVRQPPGKGLEWIGEIYHSGSTNYNPSLKSRVTISVDKSKNQFSLKLSSVTAADTAVYYCAREYSSSWLSVMDAWGQGASVTVSS
VL: not shown

Substitutions are numbered along the chain they refer to.

One experiment concerns the target T1, human Siglec-15 ECD-his protein (Acrobiosystems, Cat #: SG5-H52H3) (human, UniProt Q6ZMC9 20-263).
T1 construct: Bought protein; only its extracellular domain stood in the assay; also called human Siglec-15 protein; recombinant human Siglec-15 protein; not shown: his tag
T1 sequence: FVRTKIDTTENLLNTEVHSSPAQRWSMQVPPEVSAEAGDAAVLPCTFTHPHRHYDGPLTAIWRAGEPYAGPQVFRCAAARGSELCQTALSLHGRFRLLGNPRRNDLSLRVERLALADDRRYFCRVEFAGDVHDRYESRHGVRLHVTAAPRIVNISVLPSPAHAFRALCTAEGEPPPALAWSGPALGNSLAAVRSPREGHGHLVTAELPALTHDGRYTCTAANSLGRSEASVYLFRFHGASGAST
The experiment is described as follows: ELISA, coated human Siglec-15 ECD-his. Here is the method:
[…] human Siglec-15 ECD-his protein (Acrobiosystems, Cat #: SG5-H52H3) dissolved in PBS was added to an ELISA plate at 100 μL/well for coating and the plate was incubated overnight at 4° C. The ELISA plate was then blocked with PBST (PBS+0.05% Tween 20) containing 2% BSA at 200 μL/well and incubated at 37° C. for 1 h. The ELISA plate was washed 4 times with PBST. The anti-Siglec-15 antibody diluted in a gradient (5-fold dilution, starting concentration: 6.67 nM) was added to the ELISA plate at 100 μL/well and the plate was incubated at 37° C. for 1 h. The ELISA plate was washed 4 times with PBST. The goat anti-human IgG (H+L)-HRP (1:5000, Jackson, Cat #: 109-035-088) was added at 100 μL/well and the plate was incubated at 37° C. for 1 h. The ELISA plate was washed 4 times with PBST. The TMB substrate (Biopanda, Cat #: TMB-S-003) was added at 100 μL/well, and the plate was incubated at room temperature for 5 min, and then the stop buffer (Solarbio, Cat #: C1058) was added at 100 μL/well to stop the reaction.
In general terms: In an ELISA, binding on a coated surface is turned into a signal by an enzyme label.
By EC50 is commonly meant the concentration that produces a half-maximal response. With B1, the EC50 was determined as 0.019 nM.
On the same count and under the same terms, the figure for B2 is 0.019 nM; for B3 it is 0.025 nM.
Molecule B4 gave an EC50 of 0.02 nM.
On the same count and under the same terms, the figure for B5 is 0.029 nM.
B6 showed an EC50 of 0.02 nM.
As to B7, a half-maximal effect (EC50) was put at 0.029 nM.

A further experiment addresses T1, human Siglec-15 ECD-his protein …. Nature of the experiment: BLI (Octet RED96), antibody on AHC sensor, Siglec-15 ECD-his as analyte. Here is the method: Recombinant Human Siglec-15 Protein Affinity was determined using an Octet RED96 instrument (ForteBio) and an anti-human IgG Fc capture sensor (AHC biosensor, ForteBio, Cat #: 18-5060) according to the detailed procedures and methods provided by the manufacturer. Specifically, candidate antibodies were each diluted to a final concentration of 6 µg/mL and directly immobilized on AHC biosensors for kinetic measurements. The antigenic protein Siglec-15 ECD-his protein (Acrobiosystems, Cat #: SG5-H52H3) was diluted with 10× Kinetics buffer to 3 concentrations of 60 nM, 30 nM, and 15 nM separately and injected as the analyte for 120 s with a dissociation time of 400 s and then subjected to regeneration with 10 mM glycine HCl (pH 1.5) for 15 s. The association rate (kon) and dissociation rate (kdis) were calculated using a simple one-to-one Languir binding model (Octet Red96 data analysis software). The equilibrium dissociation constant (kD) was calculated as the ratio of kdis/kon.
Usually Kd stands for the equilibrium constant for the complex coming apart. By koff is commonly meant the first-order rate constant of dissociation. Broadly, the kon is a measure of how fast the partners come together. Consider B8, for which the Kd was 0.106 nM, the koff was found to be 0.000102 s⁻¹ and the kon came out at 968000 M⁻¹ s⁻¹.
The corresponding values for B1 are 0.0162 nM, 3.85e-06 s⁻¹ and 238000 M⁻¹ s⁻¹.
The like results for B2 were, in that order, 0.195 nM, 6.44e-05 s⁻¹ and 330000 M⁻¹ s⁻¹.
The corresponding values for B3 are 0.361 nM, 0.000137 s⁻¹ and 379000 M⁻¹ s⁻¹.
B4 had a Kd of 0.137 nM, a koff of 4.93e-05 s⁻¹ and a kon of 360000 M⁻¹ s⁻¹.
Consider B5, for which the Kd was 0.279 nM, the koff was 0.000107 s⁻¹ and the kon was found to be 384000 M⁻¹ s⁻¹.
The like results for B6 were, in that order, 0.116 nM, 3.89e-05 s⁻¹ and 337000 M⁻¹ s⁻¹.
Take B7: the Kd was determined as 0.19 nM, the koff turned out to be 5.96e-05 s⁻¹ and the on-rate (kon) came out at 314000 M⁻¹ s⁻¹.

Another experiment has as its target T2, cynomolgus monkey Siglec-15 on CHO-K1/cynomolgus monkey Siglec-15 cells (cynomolgus monkey, UniProt Q6ZMC9 20-328 (human entry)).
T2 chain: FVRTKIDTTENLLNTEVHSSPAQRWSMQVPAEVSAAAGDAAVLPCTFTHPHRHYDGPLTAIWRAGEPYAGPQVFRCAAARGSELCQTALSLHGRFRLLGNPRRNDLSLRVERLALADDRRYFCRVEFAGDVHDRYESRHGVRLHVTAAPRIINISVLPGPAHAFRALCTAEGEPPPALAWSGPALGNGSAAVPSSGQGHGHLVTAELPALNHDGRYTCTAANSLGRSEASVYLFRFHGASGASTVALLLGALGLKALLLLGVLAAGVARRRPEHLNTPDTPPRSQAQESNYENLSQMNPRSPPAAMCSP
Nature of the experiment: flow cytometry on CHO-K1/cynomolgus monkey Siglec-15 cells. As to the method: cDNAs encoding cynomolgus monkey Siglec-15 (the amino acid sequence of which is set forth in SEQ ID NO: 155) were obtained by gene synthesis and cloned into the expression vector pcDNA3.1, and then the expression vector was transfected into CHO-K1 cells to construct CHO-K1/cynomolgus monkey Siglec-15 cells expressing cynomolgus monkey Siglec-15. CHO-K1/cynomolgus monkey Siglec-15 cells were adjusted to a density of 1×10⁶/mL with PBS, and the cell suspension was added to a 96-well V-bottom plate at 100 µL/well. The 96-well V-bottom plate was centrifuged at 1000 rpm for 5 min and washed once with PBS+2% FBS. The cells were resuspended in 100 μL of antibody diluted in a gradient (5-fold dilution, starting concentration: 500 nM) and incubated at 4° C. for 1 h, and PR300066 and hIgG1 were used as positive control and negative control, respectively. After 1 h, the cells were washed twice with PBS+2% FBS. The cells were incubated with 100 μL of Alexa Fluor 488 goat anti-human IgG (Jackson, Cat #: 109-545-098) at 4° C. for 1 h in the dark and then washed twice with PBS+2% FBS. The cells were then resuspended in 200 μL of PBS+2% FBS. The fluorescence intensity of the cells was analyzed using a BD FACS Canto™ II flow cytometer.
A general note: A flow cytometer gives signals particle by particle.
B4: the EC50 came out at 5.26 nM and the “Maximum (MFI)” value was found to be 4280 MFI.
B7: the midpoint of the response, the EC50, lay at 1.34 nM and the “Maximum (MFI)” value was 4420 MFI.

Another experiment has as its target T3, human Siglec-15 on CHO-K1/human Siglec-15 cells (KYinno, Beijing) (human, UniProt Q6ZMC9 20-328).
T3 sequence: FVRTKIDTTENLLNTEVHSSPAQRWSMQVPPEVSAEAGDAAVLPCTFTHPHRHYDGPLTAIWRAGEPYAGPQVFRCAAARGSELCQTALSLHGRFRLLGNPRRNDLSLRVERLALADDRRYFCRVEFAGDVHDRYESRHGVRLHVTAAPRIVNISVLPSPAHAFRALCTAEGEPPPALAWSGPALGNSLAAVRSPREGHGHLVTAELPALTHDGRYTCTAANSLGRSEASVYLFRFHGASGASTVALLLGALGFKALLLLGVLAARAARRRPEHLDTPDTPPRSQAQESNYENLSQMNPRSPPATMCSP
The experiment is described as follows: flow cytometry on CHO-K1/human Siglec-15 cells. Here is the method:
CHO-K1/human Siglec-15 cells (KYinno, Beijing) were adjusted to a density of 1×10⁶/mL with PBS, and the cell suspension was added to a 96-well V-bottom plate at 100 μL/well. The 96-well V-bottom plate was centrifuged at 1000 rpm for 5 min and washed once with PBS+2% FBS. The cells were resuspended in […] of antibody diluted in a gradient (5-fold dilution, starting concentration: 500 nM) and incubated at 4° C. for 1 h, and PR300066 and hIgG1 were used as positive control and negative control, respectively. After 1 h, the cells were washed twice with PBS+2% FBS. The cells were incubated with 100 μL of Alexa Fluor 488 goat anti-human IgG (Jackson, Cat #: 109-545-098) at 4° C. for 1 h in the dark and then washed twice with PBS+2% FBS. The cells were then resuspended in 200 μL of PBS+2% FBS. The fluorescence intensity of the cells was analyzed using a BD FACSCanto™ II flow cytometer.
Turning to B8, the EC50 was determined as 1.03 nM and the “Maximum (MFI)” value was found to be 25300 MFI.
The like results for B4 were, in that order, 1.81 nM and 24400 MFI.
The like results for B7 were, in that order, 1.26 nM and 28800 MFI.
